Laboratory results taken from the supplement of paper PMC10567573.

B1: SNX3 (parent)
chain: FLRQLPFRGDDGIFDDNFIEERKQ
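Also: lentivirally expressed fusions sorted by FACS into six bins by GFP to DsRed ratio, PSI derived from sequencing read proportions per bin multiplied by bin number.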

Variants of: B1
Test: protein stability index of a GFP-peptide fusion (GPS, HEK-293T) (PSI 1-6); higher = more stable
Conditions: c terminus: a fixed tail appended
With FLRQLPFRGDDGIFDDNFIEERCQ the protein stability index was 3.36. For FLRQLPFRGDDGIFDDNFIEERHQ, the protein stability index was 3.38. FLRQLPFRGDDGIFDDNFIEERAQ gave a protein stability index of 3.45. FLRQLPFRGDDGIFDDNFIEERIQ showed a protein stability index of 2.47. FLRQLPFRGDDGIFDDNFIEERDQ gave a protein stability index of 4.48. In the case of FLRQLPFRGDDGIFDDNFIEERFQ, the protein stability index is reported as 2.9. Variant FLRQLPFRGDDGIFDDNWIEERKQ has a protein stability index of 3.2. Work on FLRQLPFRGDDGIFDDNQIEERKQ yielded a protein stability index of 3.94. Work on FLRQLPFRGDDGIFDDNTIEERKQ yielded a protein stability index of 3.96. FLRQLPFRGDDGIFDDNNIEERKQ showed a protein stability index of 4.16. With FLRQLPFRGDDGIFDDNMIEERKQ the protein stability index was 3.79. With FLRQLPFRGDDGIFDDNHIEERKQ the protein stability index was 3.19. For FLRQLPFRGDDGIFDDNRIEERKQ, the protein stability index was 3.9. FLRQLPFRGDDGIFDDNSIEERKQ gave a protein stability index of 4.3. Variant FLRQLPFRGDDGIFDDNLIEERKQ has a protein stability index of 3.75. With FLRQLPFRGDDGIFDDNKIEERKQ the protein stability index was 3.44. Variant FLRQLPFRGDDGIFDDNPIEERKQ has a protein stability index of 3.62. For FLRQLPFRGDDGIFDDNVIEERKQ, the protein stability index was 3.67. Work on FLRQLPFRGDDGIFDDNIIEERKQ yielded a protein stability index of 3.08. Work on FLRQLPFRGDDGIFDDNYIEERKQ yielded a protein stability index of 3.27. Variant FLRQLPFRGDDGIFDDNFIEQRKQ has a protein stability index of 2.84. Work on FLRQLPFRGDDGIFDDNFIEGRKQ yielded a protein stability index of 2.49. In the case of FLRQLPFRGDDGIFDDNFIELRKQ, the protein stability index is reported as 3.34. Variant FLRQLPFRGDDGIFDDNFIEKRKQ has a protein stability index of 3.33. Variant FLRQLPFRGDDGIFDDNFIENRKQ has a protein stability index of 3.01. FLRQLPFRGDDGIFDDNFIEHRKQ gave a protein stability index of 2.64. FLRQLPFRGDDGIFDDNFIETRKQ showed a protein stability index of 3.13. FLRQLPFRGDDGIFDDNFIEDRKQ showed a protein stability index of 4.12. For FLRQLPFRGDDGIFDDNFIESRKQ, the protein stability index was 2.83. FLRQLPFRGDDGIFDDNFIEMRKQ gave a protein stability index of 2.81. With FLRQLPFRGDDGIFDDNFIEFRKQ the protein stability index was 2.39. Work on FLRQLPFRGDDGIFDDNFIEVRKQ yielded a protein stability index of 2.02. In the case of FLRQLPFRGDDGIFDDNFIERRKQ, the protein stability index is reported as 3.19. Variant FLRQLPFRGDDGIFDDNFIEYRKQ has a protein stability index of 2. Work on FLRQLPFRGDDGIFDDNFIECRKQ yielded a protein stability index of 2.85. In the case of FLRQLPFRGDDGIFDDNFIEPRKQ, the protein stability index is reported as 2.62. With FLRQLPFRGDDGIFDDNFIEARKQ the protein stability index was 3.12. Variant FLRQLPFRGDDGIFDDNFIEWRKQ has a protein stability index of 2.1. With FLRQLPFRGDDGIFDDNFIEIRKQ the protein stability index was 2.96. With FLRQLPFRGDDGIFDDNFINERKQ the protein stability index was 2.92. FLRQLPFRGDDGIFDDNFIHERKQ gave a protein stability index of 2.29. Variant FLRQLPFRGDDGIFDDNFISERKQ has a protein stability index of 2.93. FLRQLPFRGDDGIFDDNFIGERKQ gave a protein stability index of 3.17. Work on FLRQLPFRGDDGIFDDNFIYERKQ yielded a protein stability index of 2.84. Work on FLRQLPFRGDDGIFDDNFIAERKQ yielded a protein stability index of 3.57. FLRQLPFRGDDGIFDDNFIPERKQ showed a protein stability index of 2.44. Work on FLRQLPFRGDDGIFDDNFIVERKQ yielded a protein stability index of 2.49. FLRQLPFRGDDGIFDDNFIQERKQ showed a protein stability index of 2.74. In the case of FLRQLPFRGDDGIFDDNFIWERKQ, the protein stability index is reported as 2.17. In the case of FLRQLPFRGDDGIFDDNFILERKQ, the protein stability index is reported as 2.56. For FLRQLPFRGDDGIFDDNFICERKQ, the protein stability index was 3.23. FLRQLPFRGDDGIFDDNFIDERKQ showed a protein stability index of 3.35. Variant FLRQLPFRGDDGIFDDNFITERKQ has a protein stability index of 2.24. For FLRQLPFRGDDGIFDDNFIKERKQ, the protein stability index was 3.74. Variant FLRQLPFRGDDGIFDDNFIRERKQ has a protein stability index of 3.24. Variant FLRQLPFRGDDGIFDDNFIFERKQ has a protein stability index of 2.88. Work on FLRQLPFRGDDGIFDDNFIMERKQ yielded a protein stability index of 2.79. For FLRQLPFRGDDGIFDDNFIIERKQ, the protein stability index was 1.67. FLRQLPFRGDDGIFDDNFIEEQKQ gave a protein stability index of 3.27. FLRQLPFRGDDGIFDDNFIEEFKQ showed a protein stability index of 3.44. Work on FLRQLPFRGDDGIFDDNFIEEMKQ yielded a protein stability index of 3.45. With FLRQLPFRGDDGIFDDNFIEEDKQ the protein stability index was 3.44. For FLRQLPFRGDDGIFDDNFIEENKQ, the protein stability index was 3.78. With FLRQLPFRGDDGIFDDNFIEEGKQ the protein stability index was 3.66. With FLRQLPFRGDDGIFDDNFIEECKQ the protein stability index was 2.85. With FLRQLPFRGDDGIFDDNFIEEWKQ the protein stability index was 4.24. Variant FLRQLPFRGDDGIFDDNFIEEYKQ has a protein stability index of 2.31. FLRQLPFRGDDGIFDDNFIEELKQ gave a protein stability index of 2.87. Variant FLRQLPFRGDDGIFDDNFIEESKQ has a protein stability index of 2.81. FLRQLPFRGDDGIFDDNFIEEIKQ gave a protein stability index of 2.78. For FLRQLPFRGDDGIFDDNFIEEVKQ, the protein stability index was 3.12. FLRQLPFRGDDGIFDDNFIEEPKQ showed a protein stability index of 3. With FLRQLPFRGDDGIFDDNFIEEEKQ the protein stability index was 3.73. FLRQLPFRGDDGIFDDNFIEETKQ gave a protein stability index of 3.77. For FLRQLPFRGDDGIFDDNFIEEHKQ, the protein stability index was 3.19. FLRQLPFRGDDGIFDDNFIEEKKQ gave a protein stability index of 3.81. With FLRQLPFRGDDGIFDDNFIEEAKQ the protein stability index was 3.56. Work on FLRQLPFRGDDGIFDDNFAEERKQ yielded a protein stability index of 4.03. Work on FLRQLPFRGDDGIFDDNFPEERKQ yielded a protein stability index of 4.04. Work on FLRQLPFRGDDGIFDDNFSEERKQ yielded a protein stability index of 3.67. With FLRQLPFRGDDGIFDDNFKEERKQ the protein stability index was 3.62. FLRQLPFRGDDGIFDDNFVEERKQ showed a protein stability index of 3.73. Variant FLRQLPFRGDDGIFDDNFCEERKQ has a protein stability index of 3.29. Variant FLRQLPFRGDDGIFDDNFMEERKQ has a protein stability index of 3.75. Variant FLRQLPFRGDDGIFDDNFFEERKQ has a protein stability index of 3.79. For FLRQLPFRGDDGIFDDNFNEERKQ, the protein stability index was 3.94. In the case of FLRQLPFRGDDGIFDDNFHEERKQ, the protein stability index is reported as 2.92. With FLRQLPFRGDDGIFDDNFTEERKQ the protein stability index was 3.86. For FLRQLPFRGDDGIFDDNFGEERKQ, the protein stability index was 3.87. For FLRQLPFRGDDGIFDDNFLEERKQ, the protein stability index was 3. FLRQLPFRGDDGIFDDNFDEERKQ gave a protein stability index of 3.98. FLRQLPFRGDDGIFDDNFWEERKQ gave a protein stability index of 3.6. FLRQLPFRGDDGIFDDNFYEERKQ gave a protein stability index of 3.15. In the case of FLRQLPFRGDDGIFDDNFQEERKQ, the protein stability index is reported as 4.12.
